From PMC6566870 come the findings set out here.

Where two headings read alike, the source gives them in different places.

Test [1] addresses N-terminally His6-tagged cMyc-tagged human CCR1 (human) (UniProt P32246).
The target is the same in test [2]. Nature of the test: radioligand binding; competitive displacement of 50 pM 125I-CCL3 from membranes of Flp-In T-REx 293 cells expressing CCR1; 2 h at 37 °C; two sets of experiments (Table 1, Table 3).
Test [3] has the same target. This is another data set of the same source.
Test [4] has the same target. This is another data set of the same source.
For test [5] the target is unchanged. Briefly: radioligand binding; competitive displacement of 50 pM 125I-CCL3 from membranes of Flp-In T-REx 293 cells expressing CCR1; 2 h at 37 °C; two sets of experiments (Table 1, Table 3). This is another data set of the same source.
The target is the same in test [6]. The source holds these as a separate data set.

N-terminally His6-tagged cMyc-tagged human CCR1 (human), sequence (P32246 whole entry): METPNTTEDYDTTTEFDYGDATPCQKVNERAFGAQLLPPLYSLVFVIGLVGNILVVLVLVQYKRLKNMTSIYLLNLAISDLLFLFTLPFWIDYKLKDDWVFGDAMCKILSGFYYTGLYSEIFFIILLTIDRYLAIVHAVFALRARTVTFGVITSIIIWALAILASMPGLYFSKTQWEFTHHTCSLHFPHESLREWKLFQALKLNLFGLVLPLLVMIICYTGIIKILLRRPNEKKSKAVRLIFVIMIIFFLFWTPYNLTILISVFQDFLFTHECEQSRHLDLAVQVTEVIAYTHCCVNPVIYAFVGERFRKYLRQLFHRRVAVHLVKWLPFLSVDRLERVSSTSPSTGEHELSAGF

In test [1], CCL15(N-CCL7) (ligand) gave a transduction coefficient Log(τ/KA), GPA αi1 of 9; a transduction coefficient Log(τ/KA), GPA αi2 of 8.5; a transduction coefficient Log(τ/KA), cAMP of 9.1; a transduction coefficient Log(τ/KA), pERK of 8.8. Further, in test [2], the IC50 – broadly, the midpoint of a concentration-inhibition curve – came out at 0.54 nM and the negative-log IC50 (pIC50) (usually the IC50 on a negative log10 scale, so that one unit is a factor of ten) was 9.3 -log M. For the same substance, in test [3], the ERK1/2 phosphorylation, EC50 worked out at 1.3 nM; the ERK1/2 phosphorylation, Emax amounted to 28.2%; the ERK1/2 phosphorylation, pEC50 is 8.9 -log M; the Gαi1 activation (BRET), EC50 turned out to be 0.7 nM. In addition, in test [3], the Gαi1 activation (BRET), Emax amounted to 91.2%; the Gαi1 activation (BRET), pEC50 was 9.2 -log M; the Gαi2 activation (BRET), EC50 stood at 1.5 nM; the Gαi2 activation (BRET), Emax is 124%. Also, in test [3], the Gαi2 activation (BRET), pEC50 was 8.8 -log M; the inhibition of forskolin-induced cAMP production, EC50 is 0.2 nM; the inhibition of forskolin-induced cAMP production, Emax worked out at 35.5%; the inhibition of forskolin-induced cAMP production, pEC50 was 9.7 -log M.

As to CCL15(Δ26) (ligand), in test [1], the transduction coefficient Log(τ/KA), GPA αi1 (second set of experiments) came to 8.7; the transduction coefficient Log(τ/KA), GPA αi2 worked out at 8.3; the transduction coefficient Log(τ/KA), cAMP (second set of experiments) was 8.4; the transduction coefficient Log(τ/KA), pERK (second set of experiments) worked out at 8.7. In addition, in test [4], the ERK1/2 phosphorylation, EC50 is 2.3 nM; the ERK1/2 phosphorylation, Emax is 25.4%; the ERK1/2 phosphorylation, pEC50 was 8.6 -log M; the G protein activation (Gαi1, BRET), EC50 was found to be 1 nM. In test [4], the G protein activation (Gαi1, BRET), Emax is 111%; the G protein activation (Gαi1, BRET), pEC50 was 9 -log M; the inhibition of forskolin-induced cAMP production, EC50 turned out to be 2.8 nM; the inhibition of forskolin-induced cAMP production, Emax came out at 28.7%. For the same substance, the inhibition of forskolin-induced cAMP production, pEC50 in test [4] is 8.6 -log M. Besides, in test [2], the IC50 amounted to 0.028 nM and the negative-log IC50 (pIC50) was 10.6 -log M. Besides, in test [5], the half-maximal inhibitory concentration (IC50) stood at 0.093 nM and the negative logarithm of the IC50 (pIC50) was 10.1 -log M. In test [6], this substance yielded a transduction coefficient Log(τ/KA), GPA αi1 of 8.6; a transduction coefficient Log(τ/KA), cAMP of 8.1; a transduction coefficient Log(τ/KA), pERK of 8.4. Moreover, in test [3], the Gαi2 activation (BRET), EC50 is 1.2 nM; the Gαi2 activation (BRET), Emax turned out to be 114%; the Gαi2 activation (BRET), pEC50 is 8.9 -log M; the inhibition of forskolin-induced cAMP production, EC50 (Table 3) amounted to 2.7 nM.

CCL15(Δ28) (ligand): in test [1], the transduction coefficient Log(τ/KA), GPA αi1 came out at 8.4; the transduction coefficient Log(τ/KA), GPA αi2 was found to be 8.6; the transduction coefficient Log(τ/KA), cAMP came to 8.9; the transduction coefficient Log(τ/KA), pERK came out at 8.6. In test [2], the IC50 worked out at 0.074 nM and the pIC50 was 10.1 -log M. In test [3], the ERK1/2 phosphorylation, EC50 amounted to 2.1 nM; the ERK1/2 phosphorylation, Emax came to 28.3%; the ERK1/2 phosphorylation, pEC50 was 8.7 -log M; the Gαi1 activation (BRET), EC50 was found to be 2.3 nM. For the same substance, in test [3], the Gαi1 activation (BRET), Emax amounted to 86.2%; the Gαi1 activation (BRET), pEC50 was 8.6 -log M; the Gαi2 activation (BRET), EC50 was determined as 1.3 nM; the Gαi2 activation (BRET), Emax is 140%. Further, in test [3], the Gαi2 activation (BRET), pEC50 is 8.9 -log M; the inhibition of forskolin-induced cAMP production, EC50 came to 0.4 nM; the inhibition of forskolin-induced cAMP production, Emax is 35.7%; the inhibition of forskolin-induced cAMP production, pEC50 was 9.4 -log M.
